The labels stand for the following.
B1: 14-3-3η (natural protein, human)
chain: MGDREQLLQRARLAEQAERYDDMASAMKAVTELNEPLSNEDRNLLSVAYKNVVGARRSSWRVISSIEQKTMADGNEKKLEKVKAYREKIEKELETVCNDVLSLLDKFLIKNCNDFQYESKVFYLKMKGDYYRYLAEVASGEKKNSVVEASEAAYKEAFEISKEQMQPTHPIRLGLALNFSVFYYEIQNAPEQACLLAKQAFDDAIAELDTLNEDSYKDSTLIMQLLRDNLTLWTSDQQDEEAGEGN
notes: 14-3-3 protein eta, human; also called 14-3-3 protein (eta isoform); 14-3-3η dimer

Data set [1] deals with the molecule itself. Description: SEC-SAXS; Superdex 200 Increase 5/150 GL, 20 mM Tris-HCl pH 7.5, 150 mM NaCl, 1 mM TCEP, 3% glycerol, 293.15 K; loaded 2.2 mg/ml Nedd4-2^186–975, 2 mg/ml 14-3-3η, 8.9 mg/ml complex (1:2, 60 μM). In general terms: Size exclusion chromatography separates by hydrodynamic size, large species first.
Data set [2] has as its target B1. Description: AUC; sedimentation velocity, 20 °C, 20 mM Tris-HCl pH 7.5, 150 mM NaCl, 1 mM TCEP; 1 μM 14-3-3η with Nedd4-2^335–455 variants (0.05 – 5 μM); apparent KD, sw isotherm fitted with A + B ⇌ AB, 14-3-3η dimer + one Nedd4-2 molecule. The settings on record: both partners purified.
For the next data set, the target named is T1, 14-3-3ζ (human, UniProt P63104 1-245).
T1 construct: 14-3-3 protein zeta, human
T1 sequence (looked up): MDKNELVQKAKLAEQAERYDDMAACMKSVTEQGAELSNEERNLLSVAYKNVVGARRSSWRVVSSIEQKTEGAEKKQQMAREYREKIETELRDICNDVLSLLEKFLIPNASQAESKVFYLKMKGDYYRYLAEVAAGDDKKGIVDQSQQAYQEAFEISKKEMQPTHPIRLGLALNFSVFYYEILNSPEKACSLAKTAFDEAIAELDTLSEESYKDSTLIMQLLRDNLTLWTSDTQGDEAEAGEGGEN
Description: native gel or EMSA; 12% native TBE-PAGE; 240 pmol of 14-3-3 and 120 pmol of the Nedd4-2 construct loaded. The settings on record: both partners purified.

The target in a further data set is T2, 14-3-3τ (human, UniProt P27348 1-245).
T2 construct: 14-3-3 protein tau (theta), human
T2 sequence (looked up): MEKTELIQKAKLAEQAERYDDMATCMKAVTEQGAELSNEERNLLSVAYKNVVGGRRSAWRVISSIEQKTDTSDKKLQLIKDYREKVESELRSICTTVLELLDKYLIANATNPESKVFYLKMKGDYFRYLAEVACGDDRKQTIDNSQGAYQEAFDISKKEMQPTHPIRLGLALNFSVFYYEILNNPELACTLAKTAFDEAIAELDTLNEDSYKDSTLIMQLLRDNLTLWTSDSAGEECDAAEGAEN
Described as above. The settings on record: both partners purified.

Another data set deals with T3, 14-3-3σ (human, UniProt P31947 1-248).
T3 construct: 14-3-3 protein sigma, human
T3 sequence (looked up): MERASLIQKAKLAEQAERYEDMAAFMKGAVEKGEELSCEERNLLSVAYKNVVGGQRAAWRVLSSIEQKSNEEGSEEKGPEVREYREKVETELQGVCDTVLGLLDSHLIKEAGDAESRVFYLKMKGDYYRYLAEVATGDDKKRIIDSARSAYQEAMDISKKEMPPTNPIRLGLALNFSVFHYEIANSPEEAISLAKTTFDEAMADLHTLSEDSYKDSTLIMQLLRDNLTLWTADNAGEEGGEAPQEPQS
The description is as above. The settings on record: both partners purified.

The next data set concerns the target T4, 14-3-3β (human, UniProt P31946 1-246).
T4 construct: 14-3-3 protein beta, human
T4 sequence (looked up): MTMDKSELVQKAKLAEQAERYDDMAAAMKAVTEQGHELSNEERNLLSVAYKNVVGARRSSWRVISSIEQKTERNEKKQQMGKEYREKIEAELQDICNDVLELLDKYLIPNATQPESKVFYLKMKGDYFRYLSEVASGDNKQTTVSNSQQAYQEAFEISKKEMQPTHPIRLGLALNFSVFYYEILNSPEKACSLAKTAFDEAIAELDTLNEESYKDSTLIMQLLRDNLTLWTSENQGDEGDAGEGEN
The data set is described as above. The settings on record: both partners purified.

The target in another data set is T5, 14-3-3ε (human, UniProt P62258 1-255).
T5 construct: 14-3-3 protein epsilon, human
T5 sequence (looked up): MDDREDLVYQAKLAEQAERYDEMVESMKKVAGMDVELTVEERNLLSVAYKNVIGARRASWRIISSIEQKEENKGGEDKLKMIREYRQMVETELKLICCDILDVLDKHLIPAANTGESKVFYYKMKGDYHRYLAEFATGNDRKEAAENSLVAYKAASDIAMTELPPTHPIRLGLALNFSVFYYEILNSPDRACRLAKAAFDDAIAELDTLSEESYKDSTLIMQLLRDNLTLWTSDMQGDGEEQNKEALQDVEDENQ
The description is as above. The settings on record: both partners purified.

The target in a further data set is T6, 14-3-3γ (human, UniProt P61981 2-247).
T6 construct: 14-3-3 protein gamma, human
T6 sequence: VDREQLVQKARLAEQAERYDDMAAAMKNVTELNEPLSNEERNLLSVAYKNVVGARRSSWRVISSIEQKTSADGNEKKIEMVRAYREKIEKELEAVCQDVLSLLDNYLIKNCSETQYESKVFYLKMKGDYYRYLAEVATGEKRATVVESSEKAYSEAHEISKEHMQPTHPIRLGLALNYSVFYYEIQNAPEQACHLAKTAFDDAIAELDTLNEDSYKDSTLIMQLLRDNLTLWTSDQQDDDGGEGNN
Described as above. The settings on record: both partners purified.

Data set [3] addresses B1. The data set is described as above. The settings on record: both partners purified.

A word on the stoichiometry N: it is the number of molecules, sites or subunits per partner or assembly.

Some results are limits rather than exact numbers.

With B1, the “stoichiometry N” value in data set [1] was 2.

B2: phosphorylated Nedd4-2^335–455 (domain or fragment, human, UniProt Q96PU5 335-455, looked up)
chain: SSRLRSCSVTDAVAEQGHLPPPSAPAGRARSSTVTGGEEPTPSVAYVHTTPGLPSGWEERKDAKGRTYYVNHNNRTTTWTRPIMQLAEDGASGSATNSNNHLIEPQIRRPRSLSSPTVTLS
modifications: phosphoserine at 342, phosphothreonine at 367, phosphoserine at 448
notes: source: E. coli BL21 (DE3), purified (Chelating Sepharose, TEV cleavage, Superdex 75), phosphorylated by PKA in vitro; not shown: His6, N-terminal, cleaved; GB1 domain of protein G, N-terminal, cleaved
Regarding B2, the Kd with 14-3-3η [2] was under 30 nM. The “stoichiometry N” value with 14-3-3η [2] was 2 14-3-3η protomers per Nedd4-2 protomer. For the same molecule, the binding result in the data set with 14-3-3ζ, with 14-3-3τ, in the data set with 14-3-3σ, in the data set with 14-3-3β, with 14-3-3ε and with 14-3-3γ was “binds” in each case.

B3: Nedd^335-455pS448 (domain or fragment, human, UniProt Q96PU5 335-455, looked up)
chain: SSRLRSCAVTDAVAEQGHLPPPSAPAGRARSSAVTGGEEPTPSVAYVHTTPGLPSGWEERKDAKGRTYYVNHNNRTTTWTRPIMQLAEDGASGSATNSNNHLIEPQIRRPRSLSSPTVTLS
modifications: phosphoserine at 448
notes: also called pSer^448; source: E. coli BL21 (DE3), purified (Chelating Sepharose, TEV cleavage, Superdex 75), phosphorylated by PKA in vitro; not shown: His6, N-terminal, cleaved; GB1 domain of protein G, N-terminal, cleaved
For the molecule B3, the binding result in the data set with 14-3-3η [3] is “binds”.

B4: Nedd^335-455pT367 (domain or fragment, human, UniProt Q96PU5 335-455, looked up)
chain: SSRLRSCAVTDAVAEQGHLPPPSAPAGRARSSTVTGGEEPTPSVAYVHTTPGLPSGWEERKDAKGRTYYVNHNNRTTTWTRPIMQLAEDGASGSATNSNNHLIEPQIRRPRSLASPTVTLS
modifications: phosphothreonine at 367
notes: as for B2
As for B4, in the data set with 14-3-3η [2], the Kd is 530 ± 30 nM.

B5: Nedd^335-455pS342 + pS448 (domain or fragment, human, UniProt Q96PU5 335-455, looked up)
chain: SSRLRSCSVTDAVAEQGHLPPPSAPAGRARSSAVTGGEEPTPSVAYVHTTPGLPSGWEERKDAKGRTYYVNHNNRTTTWTRPIMQLAEDGASGSATNSNNHLIEPQIRRPRSLSSPTVTLS
modifications: phosphoserine at 342, phosphoserine at 448
notes: The same variant was used in native PAGE, SV-AUC and for the crystal with 14-3-3ηΔC; source: E. coli BL21 (DE3), purified (Chelating Sepharose, TEV cleavage, Superdex 75), phosphorylated by PKA in vitro; not shown: His6, N-terminal, cleaved; GB1 domain of protein G, N-terminal, cleaved
Regarding B5, the Kd in the data set with 14-3-3η [2] is under 30 nM.

B6: Nedd^335-455pS342 (domain or fragment, human, UniProt Q96PU5 335-455, looked up)
chain: SSRLRSCSVTDAVAEQGHLPPPSAPAGRARSSAVTGGEEPTPSVAYVHTTPGLPSGWEERKDAKGRTYYVNHNNRTTTWTRPIMQLAEDGASGSATNSNNHLIEPQIRRPRSLASPTVTLS
modifications: phosphoserine at 342
notes: as for B2
With B6, in the data set with 14-3-3η [2], the Kd was 400 ± 100 nM.

B7: Nedd^335-455pS342 + pT367 (domain or fragment, human, UniProt Q96PU5 335-455, looked up)
chain: SSRLRSCSVTDAVAEQGHLPPPSAPAGRARSSTVTGGEEPTPSVAYVHTTPGLPSGWEERKDAKGRTYYVNHNNRTTTWTRPIMQLAEDGASGSATNSNNHLIEPQIRRPRSLASPTVTLS
modifications: phosphoserine at 342, phosphothreonine at 367
notes: as for B2
B7: in the data set with 14-3-3η [3], the binding result is given as “binds”.

B8: Nedd^335-455pT367 + pS448 (domain or fragment, human, UniProt Q96PU5 335-455, looked up)
chain: SSRLRSCAVTDAVAEQGHLPPPSAPAGRARSSTVTGGEEPTPSVAYVHTTPGLPSGWEERKDAKGRTYYVNHNNRTTTWTRPIMQLAEDGASGSATNSNNHLIEPQIRRPRSLSSPTVTLS
modifications: phosphothreonine at 367, phosphoserine at 448
notes: as for B2
With B8, the binding result with 14-3-3η [3] was “binds”.

The values above are taken from paper PMC8298602, “14-3-3-protein regulates Nedd4-2 by modulating interactions between HECT and WW domains” (Communications Biology, 2021).
